Assay results from patent US20250163162A1.
Each block holds one binder with its values, some of them ahead of it.

Molecular target: T1, IL10Rα/IL2Rγ receptor (human) (UniProt Q13651)
T1 sequence (looked up) 1: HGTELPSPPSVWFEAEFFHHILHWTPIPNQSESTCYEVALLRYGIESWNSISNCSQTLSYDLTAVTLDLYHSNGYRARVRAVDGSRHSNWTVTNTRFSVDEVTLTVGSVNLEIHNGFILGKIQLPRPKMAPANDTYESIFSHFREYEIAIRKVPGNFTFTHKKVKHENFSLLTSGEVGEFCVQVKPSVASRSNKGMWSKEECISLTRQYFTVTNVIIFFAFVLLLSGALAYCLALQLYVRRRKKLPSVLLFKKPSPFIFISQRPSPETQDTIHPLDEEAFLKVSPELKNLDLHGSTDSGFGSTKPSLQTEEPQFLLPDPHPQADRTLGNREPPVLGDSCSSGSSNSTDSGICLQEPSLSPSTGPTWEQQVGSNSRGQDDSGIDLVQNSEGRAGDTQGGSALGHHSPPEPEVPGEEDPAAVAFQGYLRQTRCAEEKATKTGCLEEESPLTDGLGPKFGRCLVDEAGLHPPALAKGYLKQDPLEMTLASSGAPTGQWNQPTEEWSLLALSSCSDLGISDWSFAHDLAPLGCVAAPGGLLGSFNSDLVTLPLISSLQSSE
T1 sequence (looked up) 2: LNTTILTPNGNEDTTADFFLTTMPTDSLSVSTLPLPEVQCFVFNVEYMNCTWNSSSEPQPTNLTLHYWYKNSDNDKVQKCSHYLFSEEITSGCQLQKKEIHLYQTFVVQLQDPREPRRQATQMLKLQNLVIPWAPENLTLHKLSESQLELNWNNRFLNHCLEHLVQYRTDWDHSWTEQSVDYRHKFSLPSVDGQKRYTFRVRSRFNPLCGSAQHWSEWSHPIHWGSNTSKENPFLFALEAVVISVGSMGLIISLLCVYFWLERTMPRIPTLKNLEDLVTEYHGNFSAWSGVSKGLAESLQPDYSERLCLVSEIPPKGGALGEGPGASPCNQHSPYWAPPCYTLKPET
Assay: cell-based or functional assay

Granzyme A secretion, CD8 T cells, at 0 µM: 25200 pg/mL
Granzyme A secretion, CD8 T cells, at 0.0001 µM: 19900 pg/mL
Granzyme A secretion, CD8 T cells, at 0.001 µM: 22700 pg/mL
Granzyme A secretion, CD8 T cells, at 0.01 µM: 25900 pg/mL
Granzyme A secretion, CD8 T cells, at 0.1 µM: 26100 pg/mL
Granzyme A secretion, CD8 T cells, at 1 µM: 27900 pg/mL
Granzyme A secretion, CD8 T cells, at 10 µM: 28600 pg/mL
Granzyme A secretion, CD8 T cells, at 100 µM: 28400 pg/mL
Granzyme B secretion, CD8 T cells, at 0 µM: 77700 pg/mL
Granzyme B secretion, CD8 T cells, at 0.0001 µM: 49200 pg/mL
Granzyme B secretion, CD8 T cells, at 0.001 µM: 49400 pg/mL
Granzyme B secretion, CD8 T cells, at 0.01 µM: 55500 pg/mL
Granzyme B secretion, CD8 T cells, at 0.1 µM: 58000 pg/mL
Granzyme B secretion, CD8 T cells, at 1 µM: 80200 pg/mL
Granzyme B secretion, CD8 T cells, at 10 µM: 87000 pg/mL
Granzyme B secretion, CD8 T cells, at 100 µM: 99900 pg/mL
IFNγ secretion, CD8 T cells, at 0 µM: 122000 pg/mL
IFNγ secretion, CD8 T cells, at 0.0001 µM: 91700 pg/mL
IFNγ secretion, CD8 T cells, at 0.001 µM: 105000 pg/mL
IFNγ secretion, CD8 T cells, at 0.01 µM: 122000 pg/mL
IFNγ secretion, CD8 T cells, at 0.1 µM: 129000 pg/mL
IFNγ secretion, CD8 T cells, at 1 µM: 134000 pg/mL
IFNγ secretion, CD8 T cells, at 10 µM: 143000 pg/mL
IFNγ secretion, CD8 T cells, at 100 µM: 143000 pg/mL
IL-1β secretion, LPS treated monocytes, at 0 µM: 6240 pg/mL
IL-1β secretion, LPS treated monocytes, at 0 µM (LPS only): 6880 pg/mL
IL-1β secretion, LPS treated monocytes, at 0.0001 µM: 5960 pg/mL
IL-1β secretion, LPS treated monocytes, at 0.001 µM: 6270 pg/mL
IL-1β secretion, LPS treated monocytes, at 0.01 µM: 5060 pg/mL
IL-1β secretion, LPS treated monocytes, at 0.1 µM: 6590 pg/mL
IL-1β secretion, LPS treated monocytes, at 1 µM: 5760 pg/mL
IL-1β secretion, LPS treated monocytes, at 10 µM: 6710 pg/mL
IL-1β secretion, LPS treated monocytes, at 100 µM: 8140 pg/mL
IL-9 secretion, CD8 T cells, at 0 µM: 1350 pg/mL
IL-9 secretion, CD8 T cells, at 0.0001 µM: 918 pg/mL
IL-9 secretion, CD8 T cells, at 0.001 µM: 998 pg/mL
IL-9 secretion, CD8 T cells, at 0.01 µM: 1070 pg/mL
IL-9 secretion, CD8 T cells, at 0.1 µM: 1230 pg/mL
IL-9 secretion, CD8 T cells, at 1 µM: 1610 pg/mL
IL-9 secretion, CD8 T cells, at 10 µM: 1730 pg/mL
IL-9 secretion, CD8 T cells, at 100 µM: 1880 pg/mL
B1: hIL10Ra_VHH14 - hIL2Rg_VHH19, linker GS, tag his (bispecific antibody, not shown: small tags and cut ends)
chain: QVQLQESGGGSVQAGGSLRLSCGASGYTYSSYCMGWFRQVPGKEREGVAVIDSDGSTSYADSVKGRFTISKDNGKNTLYLQMNSLKPEDTAMYYCAADLGHYRPPCGVLYLGMDYWGKGTQVTVSSGSQVQLQESGGGSVQAGGSLRLSCTASGFTFDDREMNWYRQAPGNECELVSTISSDGSTYYADSVKGRFTISQDNAKNTVYLQMDSVKPEDTAVYYCAADFMIAIQAPGAGCWGQGTQVTVSS

Granzyme A secretion, CD8 T cells, at 0 µM: 25200 pg/mL
Granzyme A secretion, CD8 T cells, at 0.0001 µM: 20600 pg/mL
Granzyme A secretion, CD8 T cells, at 0.001 µM: 25200 pg/mL
Granzyme A secretion, CD8 T cells, at 0.01 µM: 28100 pg/mL
Granzyme A secretion, CD8 T cells, at 0.1 µM: 29300 pg/mL
Granzyme A secretion, CD8 T cells, at 1 µM: 31000 pg/mL
Granzyme A secretion, CD8 T cells, at 10 µM: 31500 pg/mL
Granzyme A secretion, CD8 T cells, at 100 µM: 29900 pg/mL
Granzyme B secretion, CD8 T cells, at 0 µM: 77700 pg/mL
Granzyme B secretion, CD8 T cells, at 0.0001 µM: 68900 pg/mL
Granzyme B secretion, CD8 T cells, at 0.001 µM: 70600 pg/mL
Granzyme B secretion, CD8 T cells, at 0.01 µM: 71000 pg/mL
Granzyme B secretion, CD8 T cells, at 0.1 µM: 79300 pg/mL
Granzyme B secretion, CD8 T cells, at 1 µM: 112000 pg/mL
Granzyme B secretion, CD8 T cells, at 10 µM: 125000 pg/mL
Granzyme B secretion, CD8 T cells, at 100 µM: 106000 pg/mL
IFNγ secretion, CD8 T cells, at 0 µM: 122000 pg/mL
IFNγ secretion, CD8 T cells, at 0.0001 µM: 90100 pg/mL
IFNγ secretion, CD8 T cells, at 0.001 µM: 125000 pg/mL
IFNγ secretion, CD8 T cells, at 0.01 µM: 127000 pg/mL
IFNγ secretion, CD8 T cells, at 0.1 µM: 130000 pg/mL
IFNγ secretion, CD8 T cells, at 1 µM: 147000 pg/mL
IFNγ secretion, CD8 T cells, at 10 µM: 154000 pg/mL
IFNγ secretion, CD8 T cells, at 100 µM: 141000 pg/mL
IL-1β secretion, LPS treated monocytes, at 0 µM: 6240 pg/mL
IL-1β secretion, LPS treated monocytes, at 0 µM (LPS only): 6880 pg/mL
IL-1β secretion, LPS treated monocytes, at 0.0001 µM: 5890 pg/mL
IL-1β secretion, LPS treated monocytes, at 0.001 µM: 5390 pg/mL
IL-1β secretion, LPS treated monocytes, at 0.01 µM: 6020 pg/mL
IL-1β secretion, LPS treated monocytes, at 0.1 µM: 5240 pg/mL
IL-1β secretion, LPS treated monocytes, at 1 µM: 5680 pg/mL
IL-1β secretion, LPS treated monocytes, at 10 µM: 7120 pg/mL
IL-1β secretion, LPS treated monocytes, at 100 µM: 8780 pg/mL
IL-9 secretion, CD8 T cells, at 0 µM: 1350 pg/mL
IL-9 secretion, CD8 T cells, at 0.0001 µM: 1010 pg/mL
IL-9 secretion, CD8 T cells, at 0.001 µM: 1320 pg/mL
IL-9 secretion, CD8 T cells, at 0.01 µM: 1390 pg/mL
IL-9 secretion, CD8 T cells, at 0.1 µM: 1450 pg/mL
IL-9 secretion, CD8 T cells, at 1 µM: 1590 pg/mL
IL-9 secretion, CD8 T cells, at 10 µM: 2050 pg/mL
IL-9 secretion, CD8 T cells, at 100 µM: 1960 pg/mL
B2: hIL10Ra_VHH14 - hIL2Rg_VHH19, linker …, tag his (bispecific antibody, not shown: small tags and cut ends)
chain: QVQLQESGGGSVQAGGSLRLSCGASGYTYSSYCMGWFRQVPGKEREGVAVIDSDGSTSYADSVKGRFTISKDNGKNTLYLQMNSLKPEDTAMYYCAADLGHYRPPCGVLYLGMDYWGKGTQVTVSSGGSGGSGGSGQVQLQESGGGSVQAGGSLRLSCTASGFTFDDREMNWYRQAPGNECELVSTISSDGSTYYADSVKGRFTISQDNAKNTVYLQMDSVKPEDTAVYYCAADFMIAIQAPGAGCWGQGTQVTVSS
